Four molecules from patent US20040253243, “Aptamer therapeutics useful in ocular pharmacotherapy” (published 2004) can be followed below.

Series [1] has as its target T1, PDGF-AB (Homo sapiens, UniProt P04085;P01127 P04085:87-211,P01127:82-190).
Series [2] concerns the target T2, PDGF-BB (Homo sapiens, UniProt P01127 P01127:82-190).
For a further series, the target named is T3, TGF-beta2 (Rattus, UniProt Q07257 Q07257:331-442).
T3 sequence: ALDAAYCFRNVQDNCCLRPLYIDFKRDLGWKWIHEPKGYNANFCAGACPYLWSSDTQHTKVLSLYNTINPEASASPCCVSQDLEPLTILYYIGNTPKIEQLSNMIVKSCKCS
Nature of the series: filter; values in figure only. As to conditions: chain copies: 2 (inferred).

Series [3] deals with T1, PDGF-AB. Nature of the series: p237 labels ARC125 as SEQ 16, Table 3 as SEQ 17.
Series [4] deals with T2, PDGF-BB. Nature of the series: p237 labels ARC125 as SEQ 16, Table 3 as SEQ 17. The note with it: chain copies: 2 (inferred).

Like-named read-outs stand apart in the source and are kept apart here.

T2 sequence (P01127 82-190, one chain of several): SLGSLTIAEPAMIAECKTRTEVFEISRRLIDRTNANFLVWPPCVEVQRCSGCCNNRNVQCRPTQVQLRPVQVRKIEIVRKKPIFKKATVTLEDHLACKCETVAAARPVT
T1 sequence (P01127 82-190, chain 2 of 2, other chains not shown): as the sequence (P01127 82-190, one chain of several) above
Method for TGF-beta2: Dissociation constants for the binding of aptamers to purified human or rodent TGFβ-2 protein were determined by nitrocellulose-filter partitioning using ³²P-labeled RNA. In vitro transcribed RNA was treated with calf-intestinal alkaline phophatase (New England Biolabs) to remove 5′-triphosphates, then radio-labeled by incubation with γ-³²P-ATP and T4 polynucleotide kinase (New England Biolabs). Unincorporated label was removed by gel-filtration, and the RNAs were further purified by polyacrylamide gel electrophoresis (PAGE). Purified ³²P-labeled aptamer in water was refolded just prior to use by heating for 3 min at 95° C., followed by a 10 minute room-temperature incubation in binding buffer (50 mM Hepes, pH 7.4, 1 mM MgCl₂, 1 mM CaCl₂, 3 mM KCl, 140 mM NaCl, 0.1 mg/ml BSA, 0.01 mg/ml tRNA). The binding reactions (100 μL) were initiated by the addition of aptamer (≦0.1 nM) to excess TGFβ-2 protein (0.2-100 nM), followed by 10-30 minute equilibration at room temperature.
Nitrocellulose-filter partitioning was performed on Minifold® I, 96-well Dot-Blot manifolds (Schleicher & Schuell). Protein-bound aptamer and residual free aptamer were captured, respectively, on pre-wetted Protran nitrocellulose (Schleicher & Schuell) and Hybond-P polyvinylidene difluoride (Amersham Biosciences) filters by vacuum aspiration, and quantified by PhosphorImager (Amersham Biosciences). […]

As usually defined, the Kd is the free concentration of one partner at which half of the binding sites on the other are occupied at equilibrium, for simple one-to-one binding. Higher therefore signals a looser complex. Consider TGGGAGGGCGCGTTCTTCGTGGTTACTTTTAGTCCCG (ssDNA, 3'-3'-dT cap) [ARC123], for which the dissociation constant (Kd) in the series with PDGF-AB [1] and with PDGF-BB [2] was 0.1 nM each time.
As for GGAGGUUAUUACAGAGUCUGUAUAGCUGUACUCC (ssRNA, 2'-F all C and U, 2'-OH purines, 3'-inverted T (3T)) [ARC77], the binding result with TGF-beta2 was “binds”.
With CACAGGCTACGGCACGTAGAGCATCACCATGATCCTGTG (ssDNA, 3'-3'-dT cap) [ARC124], the Kd with PDGF-AB [1] and with PDGF-BB [2] was 0.1 nM in each case.
TACTCAGGGCACTGCAAGCAATTGTGGTCCCAATGGGCTGAGTA (ssDNA, 3'-3'-dT cap) [ARC125]: the Kd with PDGF-AB [3] and in the series with PDGF-BB [4] was 0.1 nM in each case.
